Measurements published in PMC5090061.

B1: Full-length human MCAK-his6-EGFP (wild type) (natural protein)
chain: MAMDSSLQARLFPGLAIKIQRSNGLIHSANVRTVNLEKSCVSVEWAEGGATKGKEIDFDDVAAINPELLQLLPLHPKDNLPLQENVTIQKQKRRSVNSKIPAPKESLRSRSTRMSTVSELRITAQENDMEVELPAAANSRKQFSVPPAPTRPSCPAVAEIPLRMVSEEMEEQVHSIRGSSSANPVNSVRRKSCLVKEVEKMKNKREEKKAQNSEMRMKRAQEYDSSFPNWEFARMIKEFRATLECHPLTMTDPIEEHRICVCVRKRPLNKQELAKKEIDVISIPSKCLLLVHEPKLKVDLTKYLENQAFCFDFAFDETASNEVVYRFTARPLVQTIFEGGKATCFAYGQTGSGKTHTMGGDLSGKAQNASKGIYAMASRDVFLLKNQPCYRKLGLEVYVTFFEIYNGKLFDLLNKKAKLRVLEDGKQQVQVVGLQEHLVNSADDVIKMIDMGSACRTSGQTFANSNSSRSHACFQIILRAKGRMHGKFSLVDLAGNERGADTSSADRQTRMEGAEINKSLLALKECIRALGQNKAHTPFRESKLTQVLRDSFIGENSRTCMIATISPGISSCEYTLNTLRYADRVKELSPHSGPSGEQLIQMETEEMEACSNGALIPGNLSKEEEELSSQMSSFNEAMTQIRELEEKAMEELKEIIQQGPDWLELSEMTEQPDYDLETFVNKAESALAQQAKHFSALRDVIKALRLAMQLEEQASRQISSKKRPQ
B2: Full-length human MCAK-his6-EGFP E525A (natural protein)
chain: MAMDSSLQARLFPGLAIKIQRSNGLIHSANVRTVNLEKSCVSVEWAEGGATKGKEIDFDDVAAINPELLQLLPLHPKDNLPLQENVTIQKQKRRSVNSKIPAPKESLRSRSTRMSTVSELRITAQENDMEVELPAAANSRKQFSVPPAPTRPSCPAVAEIPLRMVSEEMEEQVHSIRGSSSANPVNSVRRKSCLVKEVEKMKNKREEKKAQNSEMRMKRAQEYDSSFPNWEFARMIKEFRATLECHPLTMTDPIEEHRICVCVRKRPLNKQELAKKEIDVISIPSKCLLLVHEPKLKVDLTKYLENQAFCFDFAFDETASNEVVYRFTARPLVQTIFEGGKATCFAYGQTGSGKTHTMGGDLSGKAQNASKGIYAMASRDVFLLKNQPCYRKLGLEVYVTFFEIYNGKLFDLLNKKAKLRVLEDGKQQVQVVGLQEHLVNSADDVIKMIDMGSACRTSGQTFANSNSSRSHACFQIILRAKGRMHGKFSLVDLAGNERGADTSSADRQTRMEGAEINKSLLALKACIRALGQNKAHTPFRESKLTQVLRDSFIGENSRTCMIATISPGISSCEYTLNTLRYADRVKELSPHSGPSGEQLIQMETEEMEACSNGALIPGNLSKEEEELSSQMSSFNEAMTQIRELEEKAMEELKEIIQQGPDWLELSEMTEQPDYDLETFVNKAESALAQQAKHFSALRDVIKALRLAMQLEEQASRQISSKKRPQ
B3: Full-length human MCAK-his6-EGFP R528A (natural protein)
chain: MAMDSSLQARLFPGLAIKIQRSNGLIHSANVRTVNLEKSCVSVEWAEGGATKGKEIDFDDVAAINPELLQLLPLHPKDNLPLQENVTIQKQKRRSVNSKIPAPKESLRSRSTRMSTVSELRITAQENDMEVELPAAANSRKQFSVPPAPTRPSCPAVAEIPLRMVSEEMEEQVHSIRGSSSANPVNSVRRKSCLVKEVEKMKNKREEKKAQNSEMRMKRAQEYDSSFPNWEFARMIKEFRATLECHPLTMTDPIEEHRICVCVRKRPLNKQELAKKEIDVISIPSKCLLLVHEPKLKVDLTKYLENQAFCFDFAFDETASNEVVYRFTARPLVQTIFEGGKATCFAYGQTGSGKTHTMGGDLSGKAQNASKGIYAMASRDVFLLKNQPCYRKLGLEVYVTFFEIYNGKLFDLLNKKAKLRVLEDGKQQVQVVGLQEHLVNSADDVIKMIDMGSACRTSGQTFANSNSSRSHACFQIILRAKGRMHGKFSLVDLAGNERGADTSSADRQTRMEGAEINKSLLALKECIAALGQNKAHTPFRESKLTQVLRDSFIGENSRTCMIATISPGISSCEYTLNTLRYADRVKELSPHSGPSGEQLIQMETEEMEACSNGALIPGNLSKEEEELSSQMSSFNEAMTQIRELEEKAMEELKEIIQQGPDWLELSEMTEQPDYDLETFVNKAESALAQQAKHFSALRDVIKALRLAMQLEEQASRQISSKKRPQ
B4: Full-length human MCAK-his6-EGFP K524A (natural protein)
chain: MAMDSSLQARLFPGLAIKIQRSNGLIHSANVRTVNLEKSCVSVEWAEGGATKGKEIDFDDVAAINPELLQLLPLHPKDNLPLQENVTIQKQKRRSVNSKIPAPKESLRSRSTRMSTVSELRITAQENDMEVELPAAANSRKQFSVPPAPTRPSCPAVAEIPLRMVSEEMEEQVHSIRGSSSANPVNSVRRKSCLVKEVEKMKNKREEKKAQNSEMRMKRAQEYDSSFPNWEFARMIKEFRATLECHPLTMTDPIEEHRICVCVRKRPLNKQELAKKEIDVISIPSKCLLLVHEPKLKVDLTKYLENQAFCFDFAFDETASNEVVYRFTARPLVQTIFEGGKATCFAYGQTGSGKTHTMGGDLSGKAQNASKGIYAMASRDVFLLKNQPCYRKLGLEVYVTFFEIYNGKLFDLLNKKAKLRVLEDGKQQVQVVGLQEHLVNSADDVIKMIDMGSACRTSGQTFANSNSSRSHACFQIILRAKGRMHGKFSLVDLAGNERGADTSSADRQTRMEGAEINKSLLALAECIRALGQNKAHTPFRESKLTQVLRDSFIGENSRTCMIATISPGISSCEYTLNTLRYADRVKELSPHSGPSGEQLIQMETEEMEACSNGALIPGNLSKEEEELSSQMSSFNEAMTQIRELEEKAMEELKEIIQQGPDWLELSEMTEQPDYDLETFVNKAESALAQQAKHFSALRDVIKALRLAMQLEEQASRQISSKKRPQ

Assays:
[1] = target: Unpolymerized GDP-tubulin (porcine brain) (porcine) (UniProt P02550)
[2] = target: GMPCPP-stabilized microtubules of porcine brain tubulin (porcine) (UniProt P02550)
[3] = target: GMPCPP-stabilized microtubules of porcine brain tubulin (porcine) (UniProt P02550); assay: single-molecule TIRF microscopy; rhodamine-labelled GMPCPP-stabilized microtubules stuck onto the flow-chamber surface; 1–6 nM MCAK-GFP or GFP-labelled mutant in BRB20 pH 6.9, 75 mM KCl, 1 mM ATP, 0.05% Tween 20, 0.1 mg/ml BSA; 25°C; duration of GFP events at the microtubule end and on the lattice measured from kymographs

UniProt P02550, sequence (P02550 whole entry, looked up): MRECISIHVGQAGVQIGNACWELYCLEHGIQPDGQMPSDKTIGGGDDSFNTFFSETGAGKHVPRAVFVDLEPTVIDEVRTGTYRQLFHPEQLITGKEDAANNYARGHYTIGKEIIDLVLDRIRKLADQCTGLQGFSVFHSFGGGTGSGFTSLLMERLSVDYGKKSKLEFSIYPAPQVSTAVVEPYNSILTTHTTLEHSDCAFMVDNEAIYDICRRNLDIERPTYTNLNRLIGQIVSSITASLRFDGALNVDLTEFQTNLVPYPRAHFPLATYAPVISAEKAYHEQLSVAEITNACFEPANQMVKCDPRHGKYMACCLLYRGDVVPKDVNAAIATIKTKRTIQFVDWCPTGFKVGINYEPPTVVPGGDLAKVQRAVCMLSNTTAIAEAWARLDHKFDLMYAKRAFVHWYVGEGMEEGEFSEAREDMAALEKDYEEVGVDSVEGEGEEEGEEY

Binder	tubulin-stimulated ATPase (0.1 µM MCAK, 10 µM unpolymerized GDP-tubulin) [1]	depolymerization rate of individual GMPCPP microtubules with 40 nM MCAK [2]	microtubule-stimulated ATPase (0.1 µM MCAK, 10 µM GMPCPP-stabilized microtubules) [2]	microtubule-end residence time [3]	percent of microtubule end interaction events longer than 2 s [3]
B1	0.204 s⁻¹	2.12 μm min^−1	3.16 s⁻¹	2.03 s	31.5%
B2	0.195 s⁻¹	0.1 μm min^−1	0.16 s⁻¹	0.59 s	0.9%
B3	0.205 s⁻¹	0.29 μm min^−1	0.66 s⁻¹	0.65 s	0%
B4	0.184 s⁻¹	0.13 μm min^−1	0.72 s⁻¹	0.59 s	0%
